For data set [1], the target named is T1, Sac1 (phosphatase domain of yeast Sac1, residues 1-511) (Saccharomyces cerevisiae, UniProt P32368).
T1 sequence (P32368 1-511): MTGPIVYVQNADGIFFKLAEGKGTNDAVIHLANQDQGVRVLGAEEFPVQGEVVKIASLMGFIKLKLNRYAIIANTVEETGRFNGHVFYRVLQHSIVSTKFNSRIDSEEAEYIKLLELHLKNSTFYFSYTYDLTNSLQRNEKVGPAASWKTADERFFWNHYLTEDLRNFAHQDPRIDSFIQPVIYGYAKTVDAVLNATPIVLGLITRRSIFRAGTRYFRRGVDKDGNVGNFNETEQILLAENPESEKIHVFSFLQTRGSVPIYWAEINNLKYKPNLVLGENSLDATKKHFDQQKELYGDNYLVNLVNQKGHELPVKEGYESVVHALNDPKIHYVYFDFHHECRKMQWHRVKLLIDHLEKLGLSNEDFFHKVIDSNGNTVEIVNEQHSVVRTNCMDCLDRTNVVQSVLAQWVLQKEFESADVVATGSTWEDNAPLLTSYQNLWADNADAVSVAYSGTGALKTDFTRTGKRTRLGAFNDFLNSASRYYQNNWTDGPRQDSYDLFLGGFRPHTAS
In words: malachite green phosphate release, PI. The data set is classed as biochemical. Conditions: fixed PI(4)P, pH 6.8, room temperature; allosteric activator.

Data set [2] addresses yeast Sac1 phosphatase domain (amino acids 1-511) (yeast) (UniProt P32368). In words: AUC.
Substrate in the data set “purified protein”: CCCCCCCC(=O)OC[C@H](COP(=O)(O)O[C@H]1[C@H](O)[C@@H](O)[C@H](OP(=O)(O)O)[C@@H](O)[C@H]1O)OC(=O)CCCCCCC
Kind of data set: purified protein. Conditions: no activator; sigmoidal, Hill coefficient 3.6 ± 0.3; buffer as for wild type.

Residue numbers refer to the chain shown, from its start. In names and notes the source's numbering stands.

Experimental findings from paper PMC3329130 (Biochemistry, 2012) are described below.

For orientation: stoichiometry N means a count of units in the complex or per binding partner.

Regarding `CCCCCCCC(=O)OC[C@H](COP(=O)(O)OC[C@H](N)C(=O)O)OC(=O)CCCCCCC` [diC8 PS], the activation entry in data set [1] is “Sac1 is strongly activated by phosphatidylserine (PS)”.

In data set [2], “yeast Sac1 phosphatase domain (amino acids 1-511) (from UniProt P32368 1-511) (domain or fragment)” displayed a percent of the protein in the dimeric form of 20% and a stoichiometry N of 2.

B1: Sac1 (phosphatase domain of yeast Sac1, residues 1-511) (Saccharomyces cerevisiae S288C; R207Q) (protein)
chain: T1 sequence (P32368 1-511) with R207Q
With B1, the K0.5 in “purified protein” is 46 ± 5 µM.
